The target in the assay is chicken N-cadherin (expressed from pMiwcN vector on LN2 mouse L cell transfectants) (chicken) (UniProt P10288). Kind of assay: flow cytometry of LN2 cells stained with NCD2 and FITC secondary antibody. In general terms: In flow cytometry, cells or beads pass a laser one at a time.
Chain of UniProt P10288 (P10288 165-912): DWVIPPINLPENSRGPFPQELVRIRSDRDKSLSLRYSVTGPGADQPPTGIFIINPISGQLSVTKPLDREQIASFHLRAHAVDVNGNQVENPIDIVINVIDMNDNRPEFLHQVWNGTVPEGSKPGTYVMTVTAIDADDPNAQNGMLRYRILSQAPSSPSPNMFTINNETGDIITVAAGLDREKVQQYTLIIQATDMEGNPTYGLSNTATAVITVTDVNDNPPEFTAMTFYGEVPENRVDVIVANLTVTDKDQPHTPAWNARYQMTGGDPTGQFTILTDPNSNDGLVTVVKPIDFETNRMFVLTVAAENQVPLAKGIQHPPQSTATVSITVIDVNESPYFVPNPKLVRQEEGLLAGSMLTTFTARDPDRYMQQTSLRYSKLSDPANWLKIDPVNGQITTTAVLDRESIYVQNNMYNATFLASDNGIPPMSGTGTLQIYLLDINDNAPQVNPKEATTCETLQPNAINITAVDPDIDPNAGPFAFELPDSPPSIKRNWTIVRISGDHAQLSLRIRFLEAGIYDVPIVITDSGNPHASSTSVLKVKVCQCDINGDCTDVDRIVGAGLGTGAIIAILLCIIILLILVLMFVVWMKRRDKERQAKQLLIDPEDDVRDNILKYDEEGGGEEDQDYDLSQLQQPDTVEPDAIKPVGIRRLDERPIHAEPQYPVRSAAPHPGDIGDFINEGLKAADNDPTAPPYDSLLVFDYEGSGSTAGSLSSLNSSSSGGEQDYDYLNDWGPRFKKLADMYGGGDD

“anti-chicken-N-Cadherin antibody (NCD2, Zymed, San Francisco, Calif.)”: the mean channel fluorescence (mcf) came out at 26.5 mcf.

The record behind these values is US7033832.
